The source of these data is US20260070976A1 (Alector, published 2026).

The target in test [1] is T1, human PILRA G78 on HEK293F cells (human, UniProt Q9UKJ1 20-303).
T1 construct: also called hA; G78 OE
The experiment in a line: FACS on HEK293F cells, binding on human PILRA (hA) over human PILRB (hB). The procedure: Conditioned media samples containing the tested anti-PILRA antibodies were assessed for binding to HEK293F cells overexpressing human PILRA (hA), human PILRB (hB), and cynomolgus PILRA (cA) by FACS. The conditioned media containing the tested antibodies were incubated with the cells for 30 min at 4° C., washed twice, and then detected with goat anti-human IgG secondary antibody (Alexa Fluor 647) at 1:1000 dilution. The cells were analyzed by flow cytometry on FACS Canto II, and for all cell lines, the reported MFI values were calculated for each conditioned media. These antibodies were evaluated for nonspecific binding using a baculovirus particle (BVP) assay (Jain T., Sun T., Durand S., Hall A., Houston N. R., Nett J. H., Sharkey B., Bobrowicz B., Caffry L, Yu Y., et al. Biophysical properties of the clinical-stage antibody landscape. Proc. Natl. Acad. Sci. USA. 2017; 114:944-949. Doi: 10.1073/pnas.1616408114.). The BVP scores are listed in Table 9, and the higher the score the more nonspecific binding that occurred.

The target of test [2] is T2, human PILRB on HEK293F cells (human, UniProt Q9UKJ0 20-227).
T2 construct: also called hB
The experiment in a line: hB Kd of Table 9; method not stated (Example 8: HEK293F overexpressing cells, FACS).

Test [3] addresses cynomolgus PILRA on HEK293F cells (cynomolgus monkey, UniProt A0A7N9CRU1 20-292). Nature of the test: flow cytometry; HEK293F cells overexpressing cynomolgus PILRA, goat anti-human IgG Alexa Fluor 647.
Test [4] addresses T3, cell surface PILRA on human monocytes (human, UniProt Q9UKJ1 20-303).
T3 construct: Native PILRA on CD14+ monocytes of healthy donors; also called human PILRA; hu mono
Nature of the test: flow cytometry; Alexa Fluor 647-conjugated antibody on human CD14+ monocytes, Fc receptors blocked, 30 min on ice. As to the method:
Anti-human PILRA antibodies X0 (PA-29) and its affinity matured variants were tested for their abilities to bind cell surface PILRA on human and cynomolgus monocytes. CD14+ monocytes were isolated from healthy human donors using a RosetteSep Human Monocyte Enrichment Cocktail kit (StemCell). Cynomolgus white blood cells were collected from cynomolgus whole blood. In both human and cynomolgus samples, the Fc receptor on the tested monocytes was blocked and the monocytes were treated with Alexa Fluor 647-conjugated PILRA antibodies for 30 minutes on ice. A dose response curve of antibodies X0 (PA-29), X1, X2, X7, X11, X12, X13, X14, X16, X18, and X20 was tested for binding to cell surface PILRA in human and cynomolgus monocytes, and antibodies bound to PILRA in a dose response manner. In another sample of human donor monocytes, a dose response curve of antibodies X0 (PA-29), X1, X2, X11, X13, X18, X29 (PA-43), and X34 (A6) was tested for binding to cell surface PILRA in human and cynomolgus monocytes, and antibodies bound to PILRA in a dose response manner.
Background: Flow cytometry measures light scatter and fluorescence of single cells or particles in a stream.

For test [5], the target named is T1, human PILRA G78 on HEK293F cells. The experiment in a line: flow cytometry blocking assay; antibody on HEK293F cells overexpressing human PILRA G78, then 5 ug/mL NPDC1 Fc as the blocked ligand; cell-bound NPDC1 Fc read as MFI. The procedure: A dose response curve of antibodies X0 (PA-29), X1, X2, X7, X11, X12, X13, X14, X16, X18, and X20 was assessed for modulating the binding of Neural Proliferation Differentiation and Control Protein 1 (NPDC1) Fc to 293 cells ectopically expressing human PILRA (HEK293F human PILRA G78 overexpressing cells). Conditioned media samples containing antibodies were incubated with human PILRA overexpressing cells for 30 minutes at 4° C., and then 5 μg/mL NPDC1 Fc was added to this mixture. After 30 minutes of incubation at 4° C., the cells were washed and cell-bound NPDC1 Fc was detected with anti-human IgG Alexa Fluor 647. The cells were analyzed by flow cytometry on FACS Canto II with the percentage of NPDC1 Fc binding in the presence of conditioned media relative to NPDC1 Fc binding alone was calculated. […] All tested antibodies decreased binding of NPDC1 to human PILRA.

T1 sequence (Q9UKJ1 20-303 R78G): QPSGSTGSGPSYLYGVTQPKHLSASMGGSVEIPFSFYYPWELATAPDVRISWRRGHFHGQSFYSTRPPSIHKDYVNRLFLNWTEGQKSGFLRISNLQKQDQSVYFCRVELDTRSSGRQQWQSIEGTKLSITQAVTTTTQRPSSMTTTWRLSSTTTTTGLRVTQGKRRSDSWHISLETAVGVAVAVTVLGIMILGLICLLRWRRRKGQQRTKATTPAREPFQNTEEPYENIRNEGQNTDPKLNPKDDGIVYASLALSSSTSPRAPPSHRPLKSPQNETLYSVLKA
Sequence of cynomolgus PILRA on HEK293F cells (A0A7N9CRU1 entry or part of it): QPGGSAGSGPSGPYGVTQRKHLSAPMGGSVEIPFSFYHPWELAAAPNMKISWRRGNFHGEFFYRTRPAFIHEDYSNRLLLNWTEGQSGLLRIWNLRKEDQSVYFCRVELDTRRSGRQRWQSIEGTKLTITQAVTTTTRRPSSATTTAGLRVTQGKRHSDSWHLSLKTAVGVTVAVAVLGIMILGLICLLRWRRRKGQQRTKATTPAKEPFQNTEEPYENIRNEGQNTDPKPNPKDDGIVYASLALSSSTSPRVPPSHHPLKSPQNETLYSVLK
T3 sequence (Q9UKJ1 20-303): as the sequence (Q9UKJ1 20-303 R78G) above, with G59R counted along it
T2 sequence (Q9UKJ0 20-227): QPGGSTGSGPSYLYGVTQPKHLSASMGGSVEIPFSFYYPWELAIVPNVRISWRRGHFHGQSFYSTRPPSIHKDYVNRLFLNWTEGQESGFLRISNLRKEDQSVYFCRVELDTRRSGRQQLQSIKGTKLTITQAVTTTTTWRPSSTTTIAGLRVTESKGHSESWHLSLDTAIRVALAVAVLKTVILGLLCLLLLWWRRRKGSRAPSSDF

B1: X13 (antibody, human IgG4, V domains shown)
VH: QVQLVQSGAEVKKPGSSVKVSCKASGYNFLHYDVNWVRQAPGQGLEWMGGIIPIFGTANYAQKFQGRVTITADESTSTAYMELSSLRSEDTAVYYCATAVGAGWFDPWGQGTLVTVSS
VL: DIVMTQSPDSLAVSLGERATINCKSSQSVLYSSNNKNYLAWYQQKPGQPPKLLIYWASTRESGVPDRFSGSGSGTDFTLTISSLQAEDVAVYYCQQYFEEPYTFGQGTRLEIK
notes: conditioned media in the HEK293F assays
Take B1: in test [1], the “hA/hB binding ratio on HEK293F” value was determined as 20.3. Besides, in test [2], binding was characterised by a dissociation constant (Kd) of 51.5 nM. Besides, the concentration for a half-maximal effect (EC50 (read off the curve)) in test [3] is roughly 0.5 µg/mL; in test [4] it was roughly 0.2 µg/mL. Besides, the “IC50 (read off the curve)” value in test [5] was roughly 0.08 µg/mL.

One may read the Kd as the equilibrium constant for the complex coming apart. A higher Kd goes with a looser complex. What is called EC50 (read off the curve) is the concentration needed to bring the measured effect to its halfway point.
